Results as given in patent publication US20200231684A1 (published 2020).
Numbering of substitutions follows the chain as printed.

T1: human IL-36R on cells (human, UniProt Q9HB29 20-575)
T1 sequence (looked up): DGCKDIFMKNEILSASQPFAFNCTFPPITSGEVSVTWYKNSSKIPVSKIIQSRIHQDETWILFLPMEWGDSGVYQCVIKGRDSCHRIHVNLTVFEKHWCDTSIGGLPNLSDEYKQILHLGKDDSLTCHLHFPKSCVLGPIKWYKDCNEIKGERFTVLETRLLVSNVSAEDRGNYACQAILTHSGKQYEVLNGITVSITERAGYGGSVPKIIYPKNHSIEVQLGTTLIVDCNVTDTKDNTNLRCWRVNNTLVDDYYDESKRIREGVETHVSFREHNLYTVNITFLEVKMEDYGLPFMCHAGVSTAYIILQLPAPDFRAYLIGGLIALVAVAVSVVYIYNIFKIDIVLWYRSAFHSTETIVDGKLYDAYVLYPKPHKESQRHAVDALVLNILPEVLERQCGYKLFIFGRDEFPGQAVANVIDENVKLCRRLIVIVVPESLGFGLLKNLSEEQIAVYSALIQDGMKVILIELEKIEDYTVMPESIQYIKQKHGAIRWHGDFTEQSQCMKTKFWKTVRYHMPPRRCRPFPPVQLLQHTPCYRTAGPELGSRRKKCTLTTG

T2: recombinant human IL-36R (ECD) (human, UniProt Q9HB29 20-332)
T2 construct: range 20-332; also called IL-1RL2; IL-1Rrp2
T2 sequence (looked up): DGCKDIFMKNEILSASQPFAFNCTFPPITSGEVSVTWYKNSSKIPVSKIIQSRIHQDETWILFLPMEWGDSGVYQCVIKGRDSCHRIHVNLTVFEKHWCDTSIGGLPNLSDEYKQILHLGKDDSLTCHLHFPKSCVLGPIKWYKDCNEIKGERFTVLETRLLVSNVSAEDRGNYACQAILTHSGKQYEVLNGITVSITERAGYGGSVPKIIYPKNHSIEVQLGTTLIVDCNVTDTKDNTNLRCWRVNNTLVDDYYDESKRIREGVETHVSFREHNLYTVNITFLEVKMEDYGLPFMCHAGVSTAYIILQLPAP

T3: mouse IL-36R (mouse, UniProt Q9ERS7 22-338)
T3 sequence (looked up): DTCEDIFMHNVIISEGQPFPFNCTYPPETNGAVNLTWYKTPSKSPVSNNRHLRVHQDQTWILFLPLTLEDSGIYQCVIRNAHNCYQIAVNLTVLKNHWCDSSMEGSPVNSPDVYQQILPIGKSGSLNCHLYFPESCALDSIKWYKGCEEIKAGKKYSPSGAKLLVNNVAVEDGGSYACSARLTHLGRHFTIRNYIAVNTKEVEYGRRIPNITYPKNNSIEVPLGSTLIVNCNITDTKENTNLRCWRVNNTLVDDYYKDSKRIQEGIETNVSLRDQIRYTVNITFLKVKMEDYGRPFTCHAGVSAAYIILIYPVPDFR

T4: human IL-1R1 (human, UniProt P14778 18-336, limits assumed)
T4 construct: also called IL-1RI
T4 sequence (looked up): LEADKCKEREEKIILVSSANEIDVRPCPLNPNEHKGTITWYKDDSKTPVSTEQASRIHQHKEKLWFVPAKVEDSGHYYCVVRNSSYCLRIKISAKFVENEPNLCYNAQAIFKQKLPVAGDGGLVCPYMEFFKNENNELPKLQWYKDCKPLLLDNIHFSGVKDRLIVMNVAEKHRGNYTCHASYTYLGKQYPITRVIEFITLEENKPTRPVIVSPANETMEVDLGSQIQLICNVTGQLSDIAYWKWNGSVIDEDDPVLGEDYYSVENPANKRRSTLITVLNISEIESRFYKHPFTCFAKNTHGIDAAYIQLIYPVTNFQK

B1: antibody 89A12 (antibody, V domains shown)
VH: EVQLQQSGAELVRPGASVRLSCTASGFNIKDDYIHWVRQRPKQGLEWLGRIDPANGNTKYDPRFQDKATITADTSSNTAYLHLSSLTSEDTAVYYCAKSFPDNYYSYDDAFAYWGQGTLVTVSA
VL: DIQMTQSPASQSASLGESVTFSCLASQTIGTWLGWYQQKPGKSPQLLIYRATSLADGVPSRFSGSGSGTNFSFKISSLQAEDLASYYCQQLYSGPYTFGGGTKLEIR
notes: Mouse monoclonal from hybridoma; also called 89A12B8
B2: antibody 67E7 (antibody, V domains shown)
VH: B1 VH with L11F, R19K, L20F, K42E, L48V, D61A, R63K, H82Q, D102N
VL: B1 VL with S22T, A51S, S53T, N70K, E81A, L83F, G94A
notes: Mouse monoclonal from hybridoma; also called 67E7E8
B3: antibody 73C5 (antibody, V domains shown)
VH: QVQLKESGPGLVAPSQSLSITCTVSGFSLTNYAVHWVRQFPGKGLEWLGVIWSDGSTDFNAPFKSRLSINKDNSKSQVFFKMNSLQIDDTAIYYCARKGGYSGSWFAYWGQGTLVTVSA
VL: DIVMTQSQKFLSTSVGVRVSVTCKASQDVGTNVLWYQQKIGQSPKPLIYSASYRHSGVPDRFTGSGSGTDFTLIISNVQSEDLAEYFCQQYSRYPLTFGPGTKLELK
notes: Mouse monoclonal from hybridoma; also called 73C5C10; Mouse 73C5

What was measured:
[1] = molecular target: cynomolgus IL-36R on BaF/3 cells (cynomolgus, UniProt A0A2K5WSK9 20-558); assay: cell-based or functional assay
human IL-36R on cells [2] = molecular target: T1, human IL-36R on cells; assay: cell-based or functional assay
[3] = molecular target: T2, recombinant human IL-36R (ECD); assay: SPR (ProteOn), single IL-36R surface coat concentration
Procedure: A) Kinetics and binding affinities of anti-IL-36R antibodies binding to recombinant human IL-36R were measured using the Proteon (Bio-Rad, Hercules, Calif.) using material generated from hybridoma following single column purification. […] Binding of the chimeric anti-IL36R IgGs is equivalent to the respective mouse leads.

human IL-36R on cells [4] = molecular target: T1, human IL-36R on cells; assay: flow cytometry, HEK293 cells transfected with full-length human IL-36R
Procedure: HEK293 cells transfected with full-length human IL-36R or NCI/ADR-RES cells were passaged for 24 hours prior to staining. Cells were removed from flasks by rinsing with 10 ml of 5 mM EDTA in PBS, and then incubated at 37° C. for 10 min with an additional 10 ml of 5 mM EDTA and 2.5 ml of Accumax to declump/disperse cells. Antibodies were then diluted to specified concentrations in PBS+2% BSA, and cells incubated for 20 min at room temperature. Excess antibody was then washed by adding 200 μl of PBS and then centrifuged. Secondary reagent was then added at 50 μl per well and cells are incubated for 15 min at room temperature and then washed as above. Cells were resuspended in 200 μl PBS and analyzed by flow cytometry.

mouse IL-36R = molecular target: T3, mouse IL-36R; assay: BLI (Fortebio Octet), antibody injected over antigen surface
Procedure: (§1) B) Molecular selectivity over mouse IL-36R and human IL-1R1 The mouse and chimeric anti-IL-36R antibodies were also injected over either a mouse IL-36R or a human IL-1R1 surface at a concentration of 100 nM. The binding signal to mouse IL-36R and to human IL-1R1 for these antibodies measured using the Fortebio Octet (Fortebio, Menlo Park, Calif.) is zero, which indicates these antibodies selectively bind to human IL-36R.

human IL-1R1 = molecular target: T4, human IL-1R1; assay: as above
Procedure: as §1

human IL-36R on cells [5] = molecular target: T1, human IL-36R on cells; assay: cell-based or functional assay; remark: listed apart in the source
[6] = molecular target: T2, recombinant human IL-36R (ECD); assay: SPR (ProteOn), recombinant human IL-36R at 7 surface densities, global fit
Procedure: A) Kinetics and binding affinities of anti-IL-36R antibodies binding to recombinant human IL-36R were measured using the Proteon (Bio-Rad, Hercules, Calif.) using material generated from hybridoma following single column purification. […] The binding affinities of the mouse antibodies to human IL-36R run at 7 different surface densities (globally fit) is shown in Table 1. Binding of the chimeric anti-IL36R IgGs is equivalent to the respective mouse leads.

Sequence of cynomolgus IL-36R on BaF/3 cells (A0A2K5WSK9 entry or part of it): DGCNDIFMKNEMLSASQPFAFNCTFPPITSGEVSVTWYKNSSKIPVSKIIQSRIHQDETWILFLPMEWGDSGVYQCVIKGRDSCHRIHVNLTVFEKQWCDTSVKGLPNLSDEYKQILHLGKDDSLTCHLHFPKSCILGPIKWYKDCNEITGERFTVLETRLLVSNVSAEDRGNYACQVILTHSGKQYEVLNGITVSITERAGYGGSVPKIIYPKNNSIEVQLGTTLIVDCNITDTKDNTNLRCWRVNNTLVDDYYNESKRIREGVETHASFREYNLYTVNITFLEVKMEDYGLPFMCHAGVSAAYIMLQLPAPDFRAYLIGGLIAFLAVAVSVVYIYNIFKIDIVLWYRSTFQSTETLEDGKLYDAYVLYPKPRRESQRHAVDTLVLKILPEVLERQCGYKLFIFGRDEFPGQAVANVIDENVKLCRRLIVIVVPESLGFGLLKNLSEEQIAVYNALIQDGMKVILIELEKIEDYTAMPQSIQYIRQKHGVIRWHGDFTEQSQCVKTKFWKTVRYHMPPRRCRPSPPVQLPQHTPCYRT

| IC90, pNFκB, BaF/3 cynomolgus IL-36R cells, trun-IL-36a [1] | IC90, pNFκB, BaF/3 cynomolgus IL-36R cells, trun-IL-36b [1] [nM] | IC90, pNFκB, BaF/3 cynomolgus IL-36R cells, trun-IL-36g [1] [nM] | IC90, pNFκB, NCI/ADR-RES cells, trun-IL-36g (human IL-36R on cells [2]) [nM] | Kd [3] [nM] | EC50 (human IL-36R on cells [4]) [nM] | binding result (mouse IL-36R) | binding result (human IL-1R1) | further results | Binder |
| --- | --- | --- | --- | --- | --- | --- | --- | --- | --- |
| > 4 µM | > 333 | > 333 | 145 | < 0.1 | 0.609 | no binding (tested: 100 nM) | no binding (tested: 100 nM) | – | B1 |
| > 4 µM | > 333 | > 333 | > 67 | < 0.1 | 0.532 | no binding (tested: 100 nM) | no binding (tested: 100 nM) | – | B2 |
| 0.2 nM | 1.6 | 1.5 | 2.5 | < 0.1 | – | no binding (tested: 100 nM) | no binding (tested: 100 nM) | IC90, GM-CSF release, NCI/ADR-RES cells, trun-IL-36a (human IL-36R on cells [2]): 4.8 nM; IC90, GM-CSF release, NCI/ADR-RES cells, trun-IL-36b (human IL-36R on cells [2]): 1.4 nM; IC90, GM-CSF release, NCI/ADR-RES cells, trun-IL-36g (human IL-36R on cells [2]): 2 nM; IC90, IL-6 release, NCI/ADR-RES cells, trun-IL-36a (human IL-36R on cells [2]): 19 nM; IC90, IL-6 release, NCI/ADR-RES cells, trun-IL-36b (human IL-36R on cells [2]): 3.8 nM; IC90, IL-6 release, NCI/ADR-RES cells, trun-IL-36g (human IL-36R on cells [2]): 1.9 nM; IC90, IL-8 release, NCI/ADR-RES cells, trun-IL-36a (human IL-36R on cells [2]): 3.3 nM; IC90, IL-8 release, NCI/ADR-RES cells, trun-IL-36b (human IL-36R on cells [2]): 0.6 nM; IC90, IL-8 release, NCI/ADR-RES cells, trun-IL-36g (human IL-36R on cells [2]): 1.4 nM; IC90, pNFκB, NCI/ADR-RES cells, trun-IL-36a (human IL-36R on cells [2]): 3.4 nM; IC90, pNFκB, NCI/ADR-RES cells, trun-IL-36b (human IL-36R on cells [2]): 3.4 nM; IC90, IL-8 release, human primary keratinocytes (NHK), trun-IL-36a (human IL-36R on cells [5]): 20.8 nM; IC90, IL-8 release, human primary keratinocytes (NHK), trun-IL-36b (human IL-36R on cells [5]): 46 nM; IC90, IL-8 release, human primary keratinocytes (NHK), trun-IL-36g (human IL-36R on cells [5]): 2.4 nM; IC90, pNFκB, human primary keratinocytes (NHK), trun-IL-36a (human IL-36R on cells [5]): 10.7 nM; IC90, pNFκB, human primary keratinocytes (NHK), trun-IL-36b (human IL-36R on cells [5]): 14.4 nM; IC90, pNFκB, human primary keratinocytes (NHK), trun-IL-36g (human IL-36R on cells [5]): 1.7 nM; Kd [6]: 0.057 nM | B3 |
